# T1: CD133 protein (UniProt O43490 20-865)
# T1 chain: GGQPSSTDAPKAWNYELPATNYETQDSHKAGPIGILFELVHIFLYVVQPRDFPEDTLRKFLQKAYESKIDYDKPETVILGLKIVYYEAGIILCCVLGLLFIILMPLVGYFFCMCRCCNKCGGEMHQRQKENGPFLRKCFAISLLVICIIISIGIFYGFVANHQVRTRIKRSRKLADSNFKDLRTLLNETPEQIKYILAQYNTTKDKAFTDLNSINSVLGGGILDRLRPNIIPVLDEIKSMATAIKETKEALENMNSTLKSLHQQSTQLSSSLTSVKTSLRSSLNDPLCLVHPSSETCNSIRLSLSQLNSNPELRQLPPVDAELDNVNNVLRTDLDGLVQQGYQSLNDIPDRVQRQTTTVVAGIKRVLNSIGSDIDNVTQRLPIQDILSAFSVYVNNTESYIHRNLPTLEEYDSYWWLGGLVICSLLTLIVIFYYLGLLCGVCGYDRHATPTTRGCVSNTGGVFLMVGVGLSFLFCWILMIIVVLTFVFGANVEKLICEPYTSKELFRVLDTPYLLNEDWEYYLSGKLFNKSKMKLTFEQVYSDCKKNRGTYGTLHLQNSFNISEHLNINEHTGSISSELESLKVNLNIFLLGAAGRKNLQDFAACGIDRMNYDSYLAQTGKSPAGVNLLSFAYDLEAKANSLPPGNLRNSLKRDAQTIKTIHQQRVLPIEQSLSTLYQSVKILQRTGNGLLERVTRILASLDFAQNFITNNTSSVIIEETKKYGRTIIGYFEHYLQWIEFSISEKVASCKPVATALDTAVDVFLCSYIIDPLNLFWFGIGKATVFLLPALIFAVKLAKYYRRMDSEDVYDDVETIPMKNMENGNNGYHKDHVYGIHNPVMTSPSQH
# T2: CD133 protein (UniProt O43490 20-865, limits assumed)
# T2 construct: whole, on cells; Presented on AC133/293 cells: paraformaldehyde-fixed in the cellular ELISA, unfixed in the phage FACS; also called CD133 antigen; AC133
# T2 sequence (looked up): T1 chain
# B1: phage clone 26 (humanized single chain antibody clone 26) (scFv)
# scFv: DIQMTQSPKSLSASVGDRVTITCKASENVDTYVSWYQQKPGKAPKVLIYGASNRYTGVPSRFTGSGSATDFTLTISSLQPEDFATYYCGQSYRYPLTFAQGTKVEIKGGGGSGGGGSGGGGSEVQLVQSGAEVKKPGASVKVSCKASGYSFTNYYVHWVKQAPGQGLEWMGYVDPFNGDFNYNQKFKDRVTLTVDTSTSTAYMELSSLTSEDRAVYYCARGGLDWYDTSYWYFDVWGQGTLVTVSS
# notes: not shown: fusion to the phage coat protein; display format not described
# B2: humanized fusion protein hscFv-lh-GPVI-Fc (Fc fusion)
# chain: DIQMTQSPKSLSASVGDRVTITCKASENVDTYVSWYQQKPGKAPKVLIYGASNRYTGVPSRFTGSGSATDFTLTISSLQPEDFATYYCGQSYRYPLTFAQGTKVEIKGGGGSGGGGSGGGGSEVQLVQSGAEVKKPGASVKVSCKASGYSFTNYYVHWVKQAPGQGLEWMGYVDPFNGDFNYNQKFKDRVTLTVDTSTSTAYMELSSLTSEDRAVYYCARGGLDWYDTSYWYFDVWGQGTLVTVSSQSGPLPKPSLQALPSSLVPLEKPVTLRCQGPPGVDLYRLEKLSSSRYQDQAVLFIPAMKRSLAGRYRCSYQNGSLWSLPSDQLELVATGVFAKPSLSAQPGPAVSSGGDVTLQCQTRYGFDQFALYKEGDPAPYKNPERWYRASFPIITVTAAHSGTYRCYSFSSRDPYLWSAPSDPLELVVTGTSVTPSRLPTEPPSSVAEFSEATAELTVSFTNKVFTTETSRSITTSPKESDSPAGPARQYYTKGNGGRVECPPCPAPPVAGPSVFLFPPKPKDTLMISRTPEVTCVVVDVSHEDPEVQFNWYVDGVEVHNAKTKPREEQFNSTFRVVSVLTVVHQDWLNGKEYKCKVSNKGLPAPIEKTISKTKGQPREPQVYTLPPSREEMTKNQVSLTCLVKGFYPSDIAVEWESNGQPENNYKTTPPMLDSDGSFFLYSKLTVDKSRWQQGNVFSCSVMHEALHNHYTQKSLSLSPGK
# B3: fusion protein scFv-lh-GPVI-FcIgG2 (Fc fusion)
# chain: DILMTQSPKSMSMSLGERVTLSCKASENVDTYVSWYQQKPEQSPKVLIYGASNRYTGVPDRFTGSGSATDFSLTISNVQAEDLADYHCGQSYRYPLTFGAGTKLELKGGGGSGGGGSGGGGSEVQLQQSGPDLMKPGASVKISCKASGYSFTNYYVHWVKQSLDKSLEWIGYVDPFNGDFNYNQKFKDKATLTVDKSSSTAYMHLSSLTSEDSAVYYCARGGLDWYDTSYWYFDVWGAGTAVTVSSQSGPLPKPSLQALPSSLVPLEKPVTLRCQGPPGVDLYRLEKLSSSRYQDQAVLFIPAMKRSLAGRYRCSYQNGSLWSLPSDQLELVATGVFAKPSLSAQPGPAVSSGGDVTLQCQTRYGFDQFALYKEGDPAPYKNPERWYRASFPIITVTAAHSGTYRCYSFSSRDPYLWSAPSDPLELVVTGTSVTPSRLPTEPPSSVAEFSEATAELTVSFTNKVFTTETSRSITTSPKESDSPAGPARQYYTKGNGGRVECPPCPAPPVAGPSVFLFPPKPKDTLMISRTPEVTCVVVDVSHEDPEVQFNWYVDGVEVHNAKTKPREEQFNSTFRVVSVLTVVHQDWLNGKEYKCKVSNKGLPAPIEKTISKTKGQPREPQVYTLPPSREEMTKNQVSLTCLVKGFYPSDIAVEWESNGQPENNYKTTPPMLDSDGSFFLYSKLTVDKSRWQQGNVFSCSVMHEALHNHYTQKSLSLSPGK
# notes: also called parental fusion protein; mouse fusion protein
# B4: single chain antibody scFv-lh (scFv, not shown: a dimerising Fc or GST)
# scFv: DILMTQSPKSMSMSLGERVTLSCKASENVDTYVSWYQQKPEQSPKVLIYGASNRYTGVPDRFTGSGSATDFSLTISNVQAEDLADYHCGQSYRYPLTFGAGTKLELKGGGGSGGGGSGGGGSEVQLQQSGPDLMKPGASVKISCKASGYSFTNYYVHWVKQSLDKSLEWIGYVDPFNGDFNYNQKFKDKATLTVDKSSSTAYMHLSSLTSEDSAVYYCARGGLDWYDTSYWYFDVWGAGTAVTVSS
# notes: Orientation light-heavy; Made in CHO cells and in E. coli (pET22b); also called mouse single chain antibody; parental mouse single chain antibody
# B5: single chain antibody scFv-hl (scFv, not shown: large carriers)
# scFv: EVQLQQSGPDLMKPGASVKISCKASGYSFTNYYVHWVKQSLDKSLEWIGYVDPFNGDFNYNQKFKDKATLTVDKSSSTAYMHLSSLTSEDSAVYYCARGGLDWYDTSYWYFDVWGAGTAVTVSSGGGGSGGGGSGGGGSDILMTQSPKSMSMSLGERVTLSCKASENVDTYVSWYQQKPEQSPKVLIYGASNRYTGVPDRFTGSGSATDFSLTISNVQAEDLADYHCGQSYRYPLTFGAGTKLELK
# notes: Orientation heavy-light; Produced and purified solely from E. coli
# How the values were obtained:
# [1] = molecular target: T1, CD133 protein; test: FACS; panel A, Geo-Mean FI
# [2] = molecular target: T1, CD133 protein; test: FACS; panel A, Median FI
# [3] = molecular target: T2, CD133 protein; test: FACS of phage dilution series on AC133/293 cells, mean fluorescence index
# [4] = molecular target: T3, bovine collagen I (bovine, UniProt P02453 162-1217; P02465 80-1117, limits assumed); test: ELISA on immobilized bovine collagen I
# T3 construct: also called immobilized collagen I; soluble collagen I
# Method: Fc-protein was used as negative control.
# An Immulon 2 HB 96-well plate (NUNC, Rochester, N.Y.) was coated with 0.1 ml 1 μg/ml bovine collagen I in 15 mM Na₂CO3, 35 mM NaHCO3, pH 9.6 o/n at 4° C. Wells were washed with PBS-T, blocked with 0.1 ml 1× RotiBlock (Roth, Karlsruhe, Germany) in PBS-T for one hour and washed again before addition of 0.1 ml of threefold dilutions of fusion protein. After one hour incubation at RT with shaking, wells were washed with PBS-T. Wells were incubated with 0.1 ml anti-human IgG-HRP (Dianova, Hamburg, Germany) 1:10000 in PBS-T for one hour at RT with shaking. The plate was washed with PBS-T and incubated with 0.1 ml 1-Step Ultra TMB-ELISA (PIERCE, Rockford, Ill.). After blue staining had developed sufficiently, reactions were stopped by addition of 0.1 ml 1 M H₂SO₄. Absorbance was measured at 450 nm and 595 nm as a reference wavelength using an infinite F200 plate reader (TECAN, Männedorf, Switzerland). EC₅₀ values were calculated with Sigma Plot 11 using Four Parameter Logistic.
# [5] = molecular target: T2, CD133 protein; test: competition cellular ELISA on fixed AC133/293 cells; competitor of 2 nM W6B3H10 mAb
# Method: (§1) 1×10⁵ cells in 0.2 ml of medium were added to each well and incubated o/n at 37° C., 5% CO₂ to allow cells to attach to the surface of the plate. The next day wells were washed once with 0.2 ml PBS and fixed with 0.1 ml 2% Paraformaldehyde (in PBS, pH 7.4) for 10-20 min at RT. Wells were washed with PBS-T (PBS+0.1% Tween-20) and blocked with either 1× RotiBlock or 3% milk in PBS-T for 1 hour at RT. After washing with PBS-T, serial dilutions of the respective antibody were added to the wells and incubated at RT for at least one hour while shaking. After washing with PBS-T, 0.1 ml of StrepMAb-Classic-HRP (1:10000 in PBS-T, lba BioTagnology, Göttingen, Germany) or of horseradish peroxidase linked anti-mouse IgG (1:10000 in PBS-T, Dianova, Hamburg, Germany) was added and incubated at RT for one hour with shaking. After washing with PBS-T, 0.1 ml of 1-Step Ultra TMB-ELISA substrate (Thermo Scientific, Braunschweig, Germany) was added and incubated until an adequate blue staining developed. To stop the reaction 0.1 ml 1 M H₂SO₄ was added to each well and absorbance at 450 nm and 595 nm as a reference was measured with an infinite F200 plate reader (TECAN, Männedorf, Switzerland). […] Signals were detected using an anti-mouse IgG-HRP antibody (1:10000 in PBS-T, Dianova, Hamburg, Germany).
# [6] = molecular target: T2, CD133 protein; test: cellular ELISA on fixed AC133/293 cells
# Method: as §1, with “Germany). […]” for “Germany).”
# [7] = molecular target: T2, CD133 protein; test: competitive cellular ELISA on fixed AC133/293 cells; competitor of 2 nM W6B3H10 mAb
# Method: as §1, with “Germany). […]” for “Germany).”
# [8] = molecular target: T2, CD133 protein; test: cellular ELISA, threefold dilution series on fixed AC133/293 cells
# Method: as §1, with “Germany). […]” for “Germany).”
# T3 sequence (P02453 162-1217 limits assumed, chain 1 of 2): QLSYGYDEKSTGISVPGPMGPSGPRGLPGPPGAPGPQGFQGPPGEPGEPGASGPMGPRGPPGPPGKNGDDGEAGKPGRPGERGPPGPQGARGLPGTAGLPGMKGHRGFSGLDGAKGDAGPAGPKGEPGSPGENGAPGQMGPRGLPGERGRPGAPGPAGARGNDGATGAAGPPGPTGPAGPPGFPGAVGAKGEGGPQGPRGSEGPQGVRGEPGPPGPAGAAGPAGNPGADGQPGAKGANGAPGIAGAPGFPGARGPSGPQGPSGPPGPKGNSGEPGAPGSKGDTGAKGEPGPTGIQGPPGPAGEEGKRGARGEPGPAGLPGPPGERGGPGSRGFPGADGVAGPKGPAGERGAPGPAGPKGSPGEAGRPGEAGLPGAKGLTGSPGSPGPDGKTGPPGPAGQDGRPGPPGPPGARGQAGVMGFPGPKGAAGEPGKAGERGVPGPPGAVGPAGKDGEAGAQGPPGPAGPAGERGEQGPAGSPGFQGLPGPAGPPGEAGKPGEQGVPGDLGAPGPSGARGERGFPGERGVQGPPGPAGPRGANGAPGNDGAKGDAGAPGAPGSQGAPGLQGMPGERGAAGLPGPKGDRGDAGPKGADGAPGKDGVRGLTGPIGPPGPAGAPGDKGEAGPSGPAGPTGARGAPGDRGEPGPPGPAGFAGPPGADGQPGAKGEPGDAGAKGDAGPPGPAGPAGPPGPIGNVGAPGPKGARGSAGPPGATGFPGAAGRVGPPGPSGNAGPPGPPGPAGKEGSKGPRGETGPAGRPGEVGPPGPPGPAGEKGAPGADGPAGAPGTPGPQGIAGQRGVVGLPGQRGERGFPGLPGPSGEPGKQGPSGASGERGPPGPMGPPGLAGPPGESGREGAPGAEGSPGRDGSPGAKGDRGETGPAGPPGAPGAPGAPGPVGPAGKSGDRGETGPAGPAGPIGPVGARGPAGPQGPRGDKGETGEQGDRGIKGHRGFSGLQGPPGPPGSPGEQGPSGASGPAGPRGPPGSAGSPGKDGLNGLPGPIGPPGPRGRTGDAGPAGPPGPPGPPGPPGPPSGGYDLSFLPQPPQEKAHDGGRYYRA
# T3 sequence (P02465 80-1117 limits assumed, chain 2 of 2): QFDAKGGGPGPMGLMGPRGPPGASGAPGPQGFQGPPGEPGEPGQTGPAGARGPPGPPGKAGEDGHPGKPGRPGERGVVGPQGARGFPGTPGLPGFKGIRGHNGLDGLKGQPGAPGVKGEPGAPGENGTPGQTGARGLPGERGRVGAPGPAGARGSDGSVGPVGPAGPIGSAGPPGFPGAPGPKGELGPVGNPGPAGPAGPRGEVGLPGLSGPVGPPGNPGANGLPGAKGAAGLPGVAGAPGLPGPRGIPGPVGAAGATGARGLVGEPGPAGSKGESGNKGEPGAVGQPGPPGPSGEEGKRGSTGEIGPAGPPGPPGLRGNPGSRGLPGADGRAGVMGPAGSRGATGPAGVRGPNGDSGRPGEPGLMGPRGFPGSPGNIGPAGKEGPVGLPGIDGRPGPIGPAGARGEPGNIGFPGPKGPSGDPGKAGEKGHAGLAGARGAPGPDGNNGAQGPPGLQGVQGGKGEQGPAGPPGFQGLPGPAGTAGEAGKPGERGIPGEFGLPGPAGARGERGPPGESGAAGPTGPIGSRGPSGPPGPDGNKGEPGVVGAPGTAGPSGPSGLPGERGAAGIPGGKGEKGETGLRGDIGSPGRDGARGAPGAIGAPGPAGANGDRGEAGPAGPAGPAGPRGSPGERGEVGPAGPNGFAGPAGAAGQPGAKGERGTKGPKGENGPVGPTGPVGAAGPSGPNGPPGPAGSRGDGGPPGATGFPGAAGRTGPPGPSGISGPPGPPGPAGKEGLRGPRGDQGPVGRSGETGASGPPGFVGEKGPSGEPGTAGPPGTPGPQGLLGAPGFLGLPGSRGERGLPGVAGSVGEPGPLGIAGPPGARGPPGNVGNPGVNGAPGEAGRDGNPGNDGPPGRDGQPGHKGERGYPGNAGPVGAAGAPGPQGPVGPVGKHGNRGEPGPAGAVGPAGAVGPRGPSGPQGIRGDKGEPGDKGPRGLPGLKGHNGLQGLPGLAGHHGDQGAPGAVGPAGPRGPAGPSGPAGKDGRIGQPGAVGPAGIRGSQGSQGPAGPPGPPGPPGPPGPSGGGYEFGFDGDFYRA
binder,measurement,setting,value
B1,Kd,[1],0.0182 nM
same,Kd,[2],0.0213 nM
same,Kd,[3],0.0322 nM
B2,EC50,[4],4.7 nM
same,IC50,[5],2.7 nM
B3,EC50,[4],6.3 nM
same,IC50,[5],3.1 nM
same,EC50,[6],0.21 nM
B4,IC50,[7],3.1 nM
B5,binding result,[8],no binding
